Data reported in patent US20240317847A1 (Bayer, published 2024).
Where a chain is given by its changes, count along the chain named. Each block holds one binder with its values, some of them ahead of it.

Experiments:
[1] = biological target: T1, human IL-11 (human, UniProt P20809 22-199); assay: cell-based or functional assay
T1 sequence: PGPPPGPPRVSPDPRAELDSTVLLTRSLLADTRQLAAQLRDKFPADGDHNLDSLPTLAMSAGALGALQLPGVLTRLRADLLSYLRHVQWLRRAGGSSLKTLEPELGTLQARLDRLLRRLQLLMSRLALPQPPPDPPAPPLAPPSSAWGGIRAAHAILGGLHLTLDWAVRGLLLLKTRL

[2] = biological target: T2, murine IL-11 (mouse, UniProt P47873 22-199); assay: cell-based or functional assay
T2 sequence: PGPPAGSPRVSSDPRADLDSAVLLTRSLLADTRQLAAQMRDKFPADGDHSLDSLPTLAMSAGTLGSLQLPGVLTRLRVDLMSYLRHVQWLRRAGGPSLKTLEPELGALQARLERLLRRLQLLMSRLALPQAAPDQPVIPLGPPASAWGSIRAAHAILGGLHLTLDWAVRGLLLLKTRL

[3] = biological target: T3, human IL-11 (human, UniProt P20809 22-199); assay: cell-based or functional assay; remark: listed apart in the source
T3 sequence: T1 sequence

[4] = biological target: T4, murine IL-11 (mouse, UniProt P47873 22-199); assay: cell-based or functional assay; remark: listed apart in the source
T4 sequence: T2 sequence

[5] = biological target: T5, human IL2Ra (human, UniProt P01589 22-240, limits assumed); assay: IL2Ra direct binding ELISA, signal ratio to isotype control
T5 construct: bought protein, coated on the plate; also called hIL2RA; IL-2 receptor alpha
T5 sequence (looked up): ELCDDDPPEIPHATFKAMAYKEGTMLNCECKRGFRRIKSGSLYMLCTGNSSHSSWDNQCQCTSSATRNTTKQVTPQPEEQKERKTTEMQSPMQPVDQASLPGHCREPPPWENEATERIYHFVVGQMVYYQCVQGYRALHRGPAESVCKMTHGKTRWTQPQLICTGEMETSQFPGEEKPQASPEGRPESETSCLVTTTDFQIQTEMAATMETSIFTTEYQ
Method: IL2RA (Peprotech, Germany, #200-02RC) was coated at 1 or 0 μg/ml (buffer only control) in 30 μl coating buffer (Candor, #113500) per well on a 384 well microtiter plate (Maxisorb, Nunc, #460518) over night at 4-8° C. After two washes with 50 μl/well washing buffer (PBS+0.05% Tween, pH 7.4), the plates were incubated for two hours at room temperature with 50 μl/well SmartBlock (Candor, #113500). After blocking, the plates were washed three times with washing buffer. Then, a dilution series of the respective antibody (1E-7 [M] down to 2E-13 [M]) in PBS+0.05% Tween, 10% SmartBlock were added in 30 μl to the microtiter plate and incubated for 90 min at room temperature. After three additional washes, 30 μl anti mouse IgG HRP-conjugated antibody (Biotechne, HAF007), diluted 1:1000 in PBS+0.05% Tween (pH 7.4), were added per well and incubated for one hour. After three additional washes, a mixture of Amplex red (Invitrogen, #12222, 10 mM stock solution in DMSO) 1:1000 diluted in PBS and H2O2 (30%, Merck, #107209)) diluted 1:10000 in PBS were added as substrate with 30 μl per well and incubated for 20 min in the dark. Relative fluorescence was measured with a microtiter plate reader at 535/590 nm.
Next, the 42 antibodies were subjected to an IL2Ra binding ELISA as described in Example 20.

IC50, RGA 1 [1]: 261 nM
IC50, RGA 2 [1]: 122 nM
IC50, RGA 1 [2]: 108 nM
IC50, RGA 2 [2]: 68 nM
B1: TPP-31309 (antibody, IgG4, V domains shown)
VH: EVQLLESGGGLVQPGGSLRLSCAASGFTFSHYDMNWLRQAPGKGLEWVGVISYDSSNKFYADFVKGRFTISRDNSKNTLYLQMNSLRAEDTAVYYCARTPGSHFDYWGQGTLVTVSS
VL: QSVLTQPPSASGTPGQRVTISCSGSSSNIGNNAVNWYQQLPGTAPKLLIYYDDLLPSGVPDRFSGSKSGTSASLAISGLRSEDEADYYCSAWDDSLQGVVFGGGTKLTVL

IC50, RGA 1 [1]: > 500 nM
IC50, RGA 1 [2]: > 500 nM
B2: TPP-31280 (antibody, IgG4, V domains shown)
VH: B1 VH with S55G
VL: B1 VL with Y51R, Q97N

IC50, RGA 1 [1]: > 500 nM
IC50, RGA 2 [1]: > 500 nM
IC50, RGA 1 [2]: 144 nM
IC50, RGA 2 [2]: 75 nM
B3: TPP-31310 (antibody, IgG4, V domains shown)
VH: B1 VH
VL: B1 VL with Q97S

IC50, RGA 1 [1]: > 500 nM
IC50, RGA 1 [2]: > 500 nM
B4: TPP-31291 (antibody, IgG4, V domains shown)
VH: B1 VH with D33G, S55G
VL: B1 VL with Q97N

IC50, RGA 1 [1]: > 500 nM
IC50, RGA 2 [1]: > 500 nM
IC50, RGA 1 [2]: 196 nM
IC50, RGA 2 [2]: > 500 nM
B5: TPP-31279 (antibody, IgG4, V domains shown)
VH: B1 VH with S55G
VL: B1 VL with N35Y, Q97N

IC50, RGA 1 [1]: > 500 nM
IC50, RGA 1 [2]: > 500 nM
B6: TPP-31290 (antibody, IgG4, V domains shown)
VH: B1 VH with H31S, S55G
VL: B1 VL with Q97N

IC50, RGA 1 [1]: > 500 nM
IC50, RGA 1 [2]: > 500 nM
B7: TPP-31281 (antibody, IgG4, V domains shown)
VH: B1 VH with S55G
VL: B1 VL with D52N, Q97N

IC50, RGA 1 [1]: 345 nM
IC50, RGA 2 [1]: 287 nM
IC50, RGA 1 [2]: 70 nM
IC50, RGA 2 [2]: 28 nM
B8: TPP-31282 (antibody, IgG4, V domains shown)
VH: B1 VH with S55G
VL: B1 VL with D53N, Q97N

IC50, RGA 1 [1]: > 500 nM
IC50, RGA 2 [1]: 34 nM
IC50, RGA 1 [2]: 76 nM
IC50, RGA 2 [2]: 127 nM
B9: TPP-31311 (antibody, IgG4, V domains shown)
VH: B1 VH
VL: B1 VL with Q97N, G98A

IC50, RGA 1 [1]: > 500 nM
IC50, RGA 2 [1]: 200 nM
IC50, RGA 1 [2]: 247 nM
IC50, RGA 2 [2]: 118 nM
B10: TPP-31283 (antibody, IgG4, V domains shown)
VH: B1 VH with S55G
VL: B1 VL with L54Q, Q97N

RGA Efficacy (%) [3]: 68.9%
RGA IC50 [3]: 4.1 nM
RGA Efficacy (%) [4]: 92.1%
RGA IC50 [4]: 1.6 nM
hIL2RA ELISA Binding: Ratio to Isotpye [5]: 334 ratio
B11: TPP-26291 (antibody, V domains shown)
VH: EVQLLESGGGLVQPGGSLRLSCAASGFTFSSYGMHWVRQAPGKGLEWVSVISYDGSYKYYADSVKGRFTISRDNSKNTLYLQMNSLRAEDTAVYYCAAGVPDYWGQGTLVTVSS
VL: QSVLTQPPSASGTPGQRVTISCTGSSSNIGAGYDVHWYQQLPGTAPKLLIYSNNERPSGVPDRFSGSKSGTSASLAISGLRSEDEADYYCAAWDPSLNGPVFGGGTKLTVL

RGA Efficacy (%) [3]: 62.9%
RGA IC50 [3]: 4.1 nM
RGA Efficacy (%) [4]: 96.3%
RGA IC50 [4]: 1.5 nM
hIL2RA ELISA Binding: Ratio to Isotpye [5]: 474 ratio
B12: TPP-26298 (antibody, V domains shown)
VH: B11 VH
VL: B11 VL with T23L, P95D

RGA Efficacy (%) [3]: 73.7%
RGA IC50 [3]: 2.8 nM
RGA Efficacy (%) [4]: 96.9%
RGA IC50 [4]: 0.95 nM
hIL2RA ELISA Binding: Ratio to Isotpye [5]: 384 ratio
B13: TPP-26293 (antibody, V domains shown)
VH: B11 VH
VL: B11 VL with G32W, P95D

RGA Efficacy (%) [3]: 57.1%
RGA IC50 [3]: 3.7 nM
RGA Efficacy (%) [4]: 93.5%
RGA IC50 [4]: 1.8 nM
hIL2RA ELISA Binding: Ratio to Isotpye [5]: 183 ratio
B14: TPP-26297 (antibody, V domains shown)
VH: B11 VH
VL: B11 VL with D94Q, P95D

RGA Efficacy (%) [3]: 69.2%
RGA IC50 [3]: 13 nM
RGA Efficacy (%) [4]: 93.9%
RGA IC50 [4]: 2.1 nM
hIL2RA ELISA Binding: Ratio to Isotpye [5]: 385 ratio
B15: TPP-26295 (antibody, V domains shown)
VH: B11 VH
VL: B11 VL with P95H

RGA Efficacy (%) [3]: 70.1%
RGA IC50 [3]: 3.1 nM
RGA Efficacy (%) [4]: 96.9%
RGA IC50 [4]: 0.94 nM
hIL2RA ELISA Binding: Ratio to Isotpye [5]: 96 ratio
B16: TPP-26299 (antibody, V domains shown)
VH: B11 VH
VL: B11 VL with P95D, N98Y

RGA Efficacy (%) [3]: 69.4%
RGA IC50 [3]: 9.8 nM
RGA Efficacy (%) [4]: 97.9%
RGA IC50 [4]: 1.5 nM
hIL2RA ELISA Binding: Ratio to Isotpye [5]: 275 ratio
B17: TPP-26294 (antibody, V domains shown)
VH: B11 VH
VL: B11 VL with G32A, P95D

RGA Efficacy (%) [3]: 70.4%
RGA IC50 [3]: 5.9 nM
RGA Efficacy (%) [4]: 95.2%
RGA IC50 [4]: 1.2 nM
hIL2RA ELISA Binding: Ratio to Isotpye [5]: 436 ratio
B18: TPP-26304 (antibody, V domains shown)
VH: B11 VH
VL: B11 VL with G30W, P95D

RGA Efficacy (%) [3]: 65.8%
RGA IC50 [3]: 22 nM
RGA Efficacy (%) [4]: 94.3%
RGA IC50 [4]: 1.1 nM
hIL2RA ELISA Binding: Ratio to Isotpye [5]: 522 ratio
B19: TPP-26302 (antibody, V domains shown)
VH: B11 VH
VL: B11 VL with A91S, P95D

RGA Efficacy (%) [3]: 74%
RGA IC50 [3]: 5.6 nM
RGA Efficacy (%) [4]: 94.7%
RGA IC50 [4]: 0.94 nM
hIL2RA ELISA Binding: Ratio to Isotpye [5]: 557 ratio
B20: TPP-26292 (antibody, V domains shown)
VH: B11 VH
VL: B11 VL with P95E

RGA Efficacy (%) [3]: 75.5%
RGA IC50 [3]: 3.3 nM
RGA Efficacy (%) [4]: 94.9%
RGA IC50 [4]: 1.1 nM
hIL2RA ELISA Binding: Ratio to Isotpye [5]: 447 ratio
B21: TPP-26300 (antibody, V domains shown)
VH: B11 VH
VL: B11 VL with P95S

RGA Efficacy (%) [3]: 70%
RGA IC50 [3]: 2.2 nM
RGA Efficacy (%) [4]: 96.4%
RGA IC50 [4]: 1.5 nM
hIL2RA ELISA Binding: Ratio to Isotpye [5]: 232 ratio
B22: TPP-26306 (antibody, V domains shown)
VH: B11 VH
VL: B11 VL with P95Q

RGA Efficacy (%) [3]: 70.2%
RGA IC50 [3]: 22 nM
RGA Efficacy (%) [4]: 95.7%
RGA IC50 [4]: 2.3 nM
hIL2RA ELISA Binding: Ratio to Isotpye [5]: 481 ratio
B23: TPP-26303 (antibody, V domains shown)
VH: B11 VH
VL: B11 VL with S58E, P95D

RGA Efficacy (%) [3]: 71%
RGA IC50 [3]: 20 nM
RGA Efficacy (%) [4]: 93.1%
RGA IC50 [4]: 2.9 nM
hIL2RA ELISA Binding: Ratio to Isotpye [5]: 379 ratio
B24: TPP-26296 (antibody, V domains shown)
VH: B11 VH
VL: B11 VL with P95N
